Patent publication US6358738 (Harvard, dated 2002)

How the values were obtained:
[1] = target: T1, Plk 323-499 (two-hybrid bait, wild-type polo box) (murine (mammalian Plk), UniProt Q07832 323-499); experiment: yeast two-hybrid screen, mouse embryo cDNA library
T1 construct: Bait fusion expressed in yeast
From the text: Using the terminology of the two-hybrid system (Vojtek et al., 1993), vectors were engineered to have Plk carboxy terminal constructs as bait (see FIG. 11) and a mouse embryo 9.5/10.5-day cDNA library as prey. (A different strategy was used to identify TCTP/p23, i.e., full length Plk and a cDNA library from HeLa cells with inserts of 1–2 kb in the Examples, infra).

[2] = target: T2, GST-fusion protein of full-length TCTP/p23
T2 chain: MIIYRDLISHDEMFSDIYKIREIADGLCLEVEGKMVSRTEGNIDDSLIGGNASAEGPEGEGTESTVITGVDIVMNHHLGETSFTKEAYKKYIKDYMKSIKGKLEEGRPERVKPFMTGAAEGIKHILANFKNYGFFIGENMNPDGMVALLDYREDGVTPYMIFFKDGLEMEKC

[3] = target: T1, Plk 323-499 (two-hybrid bait, wild-type …); experiment: yeast two-hybrid
HA-Snk = HA-Snk (UniProt P53351 1-682); experiment: interaction of recombinant proteins produced in insect cells with baculovirus (GST-fusion)
HA-Snk, sequence (P53351 whole entry, the tested form may be a part): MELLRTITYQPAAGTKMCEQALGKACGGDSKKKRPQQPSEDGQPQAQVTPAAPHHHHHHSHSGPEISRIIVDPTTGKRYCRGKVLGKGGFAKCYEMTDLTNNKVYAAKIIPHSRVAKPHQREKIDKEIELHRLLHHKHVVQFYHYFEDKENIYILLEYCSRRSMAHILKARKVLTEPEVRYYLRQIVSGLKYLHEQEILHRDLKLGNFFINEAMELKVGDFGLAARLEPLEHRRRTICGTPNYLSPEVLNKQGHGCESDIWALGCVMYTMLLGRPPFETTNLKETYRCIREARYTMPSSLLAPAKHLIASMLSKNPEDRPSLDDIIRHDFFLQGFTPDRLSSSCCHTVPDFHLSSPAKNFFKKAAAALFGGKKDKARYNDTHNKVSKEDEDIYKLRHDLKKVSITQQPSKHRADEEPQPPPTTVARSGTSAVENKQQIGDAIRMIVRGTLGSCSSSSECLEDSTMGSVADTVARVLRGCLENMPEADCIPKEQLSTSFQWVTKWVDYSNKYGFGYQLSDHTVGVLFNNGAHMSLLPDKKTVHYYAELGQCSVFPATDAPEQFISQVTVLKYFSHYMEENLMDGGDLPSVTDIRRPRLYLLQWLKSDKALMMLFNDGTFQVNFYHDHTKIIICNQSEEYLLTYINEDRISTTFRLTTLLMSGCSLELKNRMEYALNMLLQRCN
From the text: Full-length TCTP/p23 (SEQ ID No:27) cDNA was isolated and cloned into a pGEX vector to produce a GST-fusion protein.

B1: Plk 500-603 (two-hybrid prey clone) (other, not shown: large carriers)
chain: REGDELARLPYLRTWFRTRSAIILHLSNGTVQINFFQDHTKLILCPLMAAVTYINEKRDFQTYRLSLLEEYGCCKELASRLRYARTMVDKLLSSRSASNRLKAS
[1]
  binding result: binds

B2: HA-Plk (protein)
chain: MNAAAKAGKLARAPADLGKGGVPGDAVPGAPVAAPLAKEIPEVLVDPRSRRQYVRGRFLGKGGFAKCFEISDADTKEVFAGKIVPKSLLLKPHQKEKMSMEISIHRSLAHQHVVGFHDFFEDSDFVFVVLELCRRRSLLELHKRRKALTEPEARYYLRQIVLGCQYLHRNQVIHRDLKLGNLFLNEDLEVKIGDFGLATKVEYEGERKKTLCGTPNYIAPEVLSKKGHSFEVDVWSIGCIMYTLLVGKPPFETSCLKETYLRIKKNEYSIPKHINPVAASLIQKMLQTDPTARPTIHELLNDEFFTSGYIPARLPITCLTIPPRFSIAPSSLDPSSRKPLKVLNKGVENPLPDRPREKEEPVVRETNEAIECHLSDLLQQLTSVNASKPSERGLVRQEEAEDPACIPIFWVSKWVDYSDKYGLGYQLCDNSVGVLFNDSTRLILYNDGDSLQYIERDGTESYLTVSSHPNSLMKKITLLNYFRNYMSEHLLKAGANITPREGDELARLPYLRTWFRTRSAIILHLSNGTVQINFFQDHTKLILCPLMAAVTYINEKRDFQTYRLSLLEEYGCCKELASRLRYARTMVDKLLSSRSASNRLKAS
[2]
  phosphorylation of TCTP/p23 by Plk kinase activity: phosphorylated by Plk on serine residues at positions 46 and 64

B3: chaperonin-containing-TCP (CCT) epsilon subunit, amino acid residues 13-139, two-hybrid prey clone (other, not shown: large carriers)
chain: GRPFLIIKDQDRKSRLMGLEALKSHIMAAKAVANTMRTSLGPNGLDKMMVDKDGDVTITNDGATILSMMDVDHQIAKLMVELSKSQDDEIGDGTTGVVVLAGALLEEAEQLLDRGIHPIRIADGYEQ
notes: also called CCT-ε
[3]
  binding result: binds

B4: GST-fusion protein of full-length TCTP/p23 (other)
chain: T2 chain
notes: Full-length TCTP/p23 cDNA cloned into a pGEX vector to produce a GST-fusion protein; also called GST-TCTP/p23; not shown: glutathione-S-transferase (GST) from pGEX vector
HA-Snk
  binding result: no binding
